For three substances, EC50, CoV-2 pseudotype neutralization IC50 and IC50 results are on record in patent US12404607.

Experiment [1] concerns the target SARS-CoV-2 spike S1 antigen (SARS-CoV-2) (UniProt P0DTC2). The experiment in a line: ELISA, coated S1.
In experiment [2] the target is SARS-CoV-2 spike on GFP reporter pseudotype virus (Integral Molecular) (SARS-CoV-2) (UniProt P0DTC2). The experiment in a line: cell-based or functional assay.
For experiment [3], the target named is SARS-CoV-2 spike receptor binding domain (RBD) antigen (SARS-CoV-2) (UniProt P0DTC2). In words: ELISA, coated RBD. (ELISA stands for enzyme-linked immunosorbent assay.)
The target in experiment [4] is SARS CoV-2 Spike RBD protein of the Spike:ACE2 blocking ELISA (BPS Bioscience) (SARS-CoV-2) (UniProt P0DTC2). The experiment in a line: competition ELISA: RBD coated, test article, then ACE2-His (competitor).
For the next experiment, the target named is SARS CoV RBD (SARS-CoV) (UniProt P59594). In words: ELISA, antigen coated at 2 ug/mL.

One may read the EC50 as the midpoint of the concentration-response curve. Read a high EC50 as a need for much substance. Regarding “SARS CoV mAb [CR3022] (Absolute Antibody)”, the EC50 in experiment [1] worked out at 0.078 µg/mL; in experiment [3] it was 0.088 µg/mL. In addition, in experiment [2], the CoV-2 pseudotype neutralization IC50 came to 100 µg/mL.
A word on the IC50: it is the midpoint of a concentration-inhibition curve. On to “SARS CoV-2 mAb [SAD-S35] (Acro Biosystems) (antibody)”, for which the values for the EC50 in experiment [1] and in experiment [3] were 0.058 µg/mL and 0.057 µg/mL, respectively. For the same substance, in experiment [2], the CoV-2 pseudotype neutralization IC50 stood at 0.26 µg/mL. The same substance yielded an IC50 in experiment [4] of 1.1 µg/mL.
Turning to “rCIG (recombinant coronavirus-2 immune globulin; recombinant anti-coronavirus 19 hyperimmune gammaglobulin)”, the EC50 in experiment [1] was determined as 0.092 µg/mL; in the experiment with SARS CoV RBD (SARS-CoV), 0.6 µg/mL; in experiment [3] it was 0.1 µg/mL. In experiment [2], this substance showed a CoV-2 pseudotype neutralization IC50 of 0.43 µg/mL. Also, the IC50 in experiment [4] was 2.2 µg/mL.
